From the nanobody polyreactivity screen of Harvey et al. (2022)

Assay: yeast display, Sf9 membrane polyspecificity reagent, FACS + sequencing; frameworks hold sequencing errors
How it was run: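 In a synthetic yeast display library (Saccharomyces cerevisiae BJ5465), nanobody expression was induced with galactose for 36–48 hours. FACS gates were set low and high (top ~1%) using anti-HA fluorescence for expression and streptavidin fluorescence for binding of the Sf9 membrane reagent. Each polyreactivity label is drawn from the gate of origin.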

Sequence	polyreactivity (PSR sort gate)
QVQLVESGGCLVQAGGSLRLSCAASGSIFDYNAMGWYRQAPGKEREFVAAISSSAGSTYYADSVKGRFTISRDNAKNTVYLQMNSLKPEDTAVYYCAADWYDFSFPYYEYEFWGQGTQVTVSS	low polyreactivity
HVQIVESGGGLVQAGGRLRLSCAASGSTFHDYAMGWYRQATGQERELVAAISNSGGSTYYADSVKARFTISRDNAKNTVYLQMKSQKPEYTAVYYCAADGRWYWDYEYWGQGTQVTVSS	low polyreactivity
QVQLVESGGGLVQAGGSRRLSCAASGRTFYLYAMGWYIQARGQERELVAANTTSGGSTYYADSVKGRFTISRDKAKNTVYLQMHSLKPEDTAVYYCNKDLSTTKFDDWGQGTQVTVSS	low polyreactivity
QVQLVESGGGLVQAGGSLRLSCAASGYIFKRYAIGWNRQAPGKERELVAAISGNGGSTYYADSVKGRFTISRDNAKNTVYFQMNSLKPEDTAVYYCNKSGYYSPTSKGEYWGQGTQVTVSS	low polyreactivity
QVQLVESGGGLVQAGGSLRLSCAASGSTFYDNTMGSYRQAPGKERELVAAITGTGGNTYYADSVKGRFTISRDNAKNTVYLQMNSLKPEDTAVYYCNRVPVYYYRYGYWGQGTQVTVSS	low polyreactivity
QVQLVESAGGLVQAGGSLRLSCAASGFTFTKYAMGWYRQAPRKESELVAAISSSGYSTYYADSVKGRFTISRDNAKNTVYLQMNSLKPEDSAVYYCAARGYYSSGVDYWGQGTQVTVSS	high polyreactivity
QVQLVESGGGLVQAGGSLRLSCAASGYIFSHYAMAWYRQAPGKERELVAAISRNGGSTYYADSVKGRFTISRDNAKNTVYLQMNSLKPEDTSVYYCAVGWKYRYGYWGQGTQVTVSS	high polyreactivity
QVQLVESGGGLVQAGGSLRLSCAASGSTFRWYAMGWYRQAPGKERELVAAISRSGGNTYYADSVKGRFTISRDNAKNTVYLQMNSLKPEDTAVYYCAARKLYGSPEHGYWGQGTQVTVSS	high polyreactivity
QVQLVESGGALVQAGGSLRLSCAASGFIFHYYAMGWYRQAPGKERELVAAISKTGGSTYYADSVKGRFTISRDNAKNTVYLQMNSLKPEDTAVYYCAVARSAYYRGNHWGQGTQVTVSS	high polyreactivity
QLQLLESDGGLVQAGVSLRLSCATSAMTISRYTMGWYRQAPGKARELVAVITYRGGSTYYADSVKGRFTISRDNAKNTVYLQMNSLKPEDTAVYYCAAGRRTYGLTYDYWGQGTQVTVSS	high polyreactivity
QVQLVESGGGLVQAGGSLRLSCAASGITFSHYAMGWYRQAPGKEREFVAAIRYSGGRTYYADSVKGRFTISRDNAKNTVYLQMNSLKPEDTAVYYCAAVVPDRYWGQGTQVTVSS	high polyreactivity
QVQLVESGGGLVQAGGSLRLSCAASGRILKRNAMGWYRQSPGKERELVAAISWSTGTTYYADSVKGRFTISRDNAKNTVYLQMNSLKPEDTAVYYCAKQIVSGRRVDRNDYWGQGTQVTVSS	low polyreactivity
QVQLVESGGGLVQAGGSLRLSCPASGSTIDPNARGWYRQAPGNERELVAAISYTGGRTYYADSVKGRFTISRDNAKNTVYLQMNSLKPEDTAVYYCAVLVVGATTQDEPYFSGVEHDYWGQGTQVTVSS	low polyreactivity
QVQLQESGGGLVQAGGSLRLSCAASGNIVDADIMGWYRQAPGKEREIVASITDGGSTNYADSLKGRFTISRDHAKNTVYQQMNRLLPEDTAVYYCAAIAYPDIPTYFDYDSDYFYWGQGTQETVSS	high polyreactivity
QVQLVESRGGLVQAGGSHRLSCAASGSIFGYYAMGWYRQAPGNERELVAAIRSTGSTNYADSVKGRFTISRDNAQNSVYLQMNSLKPVDTAVYYCAAGYITWGSGNWVVTPYDYWGQGTQVTVSS	high polyreactivity
QVQLVESGGGLVQAGGSLRLSCDASGRIFSYYAMGWYRPAPGKERELVAAITRSGGNTYYADSVKGRFTISRDNAKNTVYLLMNSLKPEDTAVYYCAARLGRPFYGPNRYDYWGQGTQVTVSS	high polyreactivity
QVQLVETGGGLVQAGGSLRLSCAASGRIFVVYDMGWYRQAPGKERELVANITISGGRTYYADSVKGRFTISRDNAKNTVYLQMNSLKPEDTAVYYCAATSGALYYGYEYWGQGTQVTVSS	low polyreactivity
